Biological target: M2 protein of influenza A/Puerto Rico/8/34 (H1N1) on the surface of infected MDCK cells or transfected cells (influenza A virus H1N1 A/Puerto Rico/8/34) (UniProt P06821)
Test: flow cytometry, PR8-infected MDCK cells

UniProt P06821, sequence (P06821 whole entry): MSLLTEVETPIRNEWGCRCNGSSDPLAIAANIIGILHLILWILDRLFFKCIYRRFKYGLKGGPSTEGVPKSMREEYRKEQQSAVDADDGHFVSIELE

“chimeric mouse V-region/human IgG1 kappa 14C2 antibody” was tested, and the EC50 (read off the curve) was 0.3 µg/mL.

Source: patent publication US20140363441A1 (priority 2013, published 2014)
